Assay [1] has as its target T1, Human EGFR (human, UniProt P00533).
T1 construct: recombinant protein coated on the ELISA plate; also called human EGFR recombinant protein
The assay can be described thus: ELISA, plate coated with 100 ng/well human EGFR recombinant protein, HRP anti-human Fc, OD450.
Method: (§1) Binding specificity was tested by ELISA according to the standard protocol. Specifically, 96-well plates were coated with 100 ng/well human EGFR, human HER2, human HER3, human HER4, human cMET, human Sema3A recombinant protein in PBS, incubated overnight at 4° C. Plates were washed twice by TBS+0.05% Tween20. 200 μL blocking buffer (2% BSA in PBS) was added to each well and incubated at 37° C. for 2 h. After wash, Serial diluted antibodies were added to the ELISA plate with 100 μL per well and incubated for 1 h at room temperature. Then plates were washed for 3 times. HRP conjugated anti-human Fc antibody solution (Abcam, ab98624) was added to the plate with 100 μL per well. The plates were incubated at room temperature for 1 h and then washed for 3 times. […] Finally, read the absorbance at A₄₅₀ and A₆₃₀.

The target in assay [2] is T2, Human cMET.
T2 construct: also called human cMET recombinant protein
T2 chain: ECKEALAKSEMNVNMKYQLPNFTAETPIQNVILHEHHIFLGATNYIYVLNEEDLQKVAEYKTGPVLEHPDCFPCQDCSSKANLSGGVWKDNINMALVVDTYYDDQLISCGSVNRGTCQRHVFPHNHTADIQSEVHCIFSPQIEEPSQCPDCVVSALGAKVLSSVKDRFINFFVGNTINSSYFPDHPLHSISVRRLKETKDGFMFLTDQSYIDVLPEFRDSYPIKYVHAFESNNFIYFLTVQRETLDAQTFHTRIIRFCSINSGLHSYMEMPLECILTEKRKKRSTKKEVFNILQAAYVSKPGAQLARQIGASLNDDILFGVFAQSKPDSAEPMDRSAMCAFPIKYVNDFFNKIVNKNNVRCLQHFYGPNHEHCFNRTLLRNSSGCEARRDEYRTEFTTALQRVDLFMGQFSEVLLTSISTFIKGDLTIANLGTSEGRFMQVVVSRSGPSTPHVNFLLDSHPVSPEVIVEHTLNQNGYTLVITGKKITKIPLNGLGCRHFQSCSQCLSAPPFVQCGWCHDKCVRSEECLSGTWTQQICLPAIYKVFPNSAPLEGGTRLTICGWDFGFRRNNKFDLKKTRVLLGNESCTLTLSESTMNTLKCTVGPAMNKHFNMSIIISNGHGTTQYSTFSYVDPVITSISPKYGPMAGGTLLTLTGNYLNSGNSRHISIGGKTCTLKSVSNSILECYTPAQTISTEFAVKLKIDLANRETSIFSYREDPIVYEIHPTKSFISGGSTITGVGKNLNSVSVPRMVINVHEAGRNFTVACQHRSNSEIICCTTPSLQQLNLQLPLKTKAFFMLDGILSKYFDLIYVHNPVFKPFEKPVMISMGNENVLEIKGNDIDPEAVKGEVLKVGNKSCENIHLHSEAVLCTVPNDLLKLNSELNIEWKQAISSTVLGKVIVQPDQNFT
The experiment in a line: ELISA, plate coated with 100 ng/well human cMET recombinant protein, HRP anti-human Fc, OD450.
Method: as §1

Assay [3] addresses T3, EGFR on EGFR and cMET co-expressed tumor cell lines (UniProt P00533 25-1210, limits assumed).
T3 construct: whole, on cells
The assay can be described thus: flow cytometry on EBC-1 cells (co-express EGFR and cMET), PE anti-human Fc; signal of the whole bispecific, not resolved by arm. For orientation: A flow cytometer gives signals particle by particle.
Method: (§2) EBC-1, ACHN and CAL-27 were cultured with DMEM medium (Gibco, Cat #C11995500BT) containing 10% FBS. […] Each antibody was incubated with different cell lines (1×10⁵ cells per well) for 30 mins in 0.2 mL FACS buffer (1×PBS with 0.1% BSA) at 4° C. After wash, cells were incubated with 100 μL PE-conjugated anti human Fc (Abcam, Ab98596, 1:500 dilution) for 30 mins at 4° C. After wash with PBS, cells were resuspended in FACS buffer and analyzed by flow cytometer (Beckman, CytoFLEX).

Assay [4] concerns the target T4, cMET on EGFR and cMET co-expressed tumor cell lines (UniProt P08581 25-1390, limits assumed).
T4 construct: whole, on cells
The assay is described as above.
Method: as §2

Assay [5] concerns the target T3, EGFR on EGFR and cMET co-expressed …. The assay can be described thus: flow cytometry on SNU-5 cells (co-express EGFR and cMET), PE anti-human Fc; signal of the whole bispecific, not resolved by arm.
Method: as §2
In assay [6] the target is T4, cMET on EGFR and cMET co-expressed …. The assay is described as above.
Method: as §2
Assay [7] has as its target T3, EGFR on EGFR and cMET co-expressed …. The assay can be described thus: flow cytometry on CAL-27 cells (co-express EGFR and cMET), PE anti-human Fc; signal of the whole bispecific, not resolved by arm.
Assay [8] has as its target T4, cMET on EGFR and cMET co-expressed …. The assay is described as above.
Assay [9] shares this target. The experiment in a line: flow cytometry, EBC-1 cells (co-express EGFR and cMET; both arms contribute).
Target sequence in this assay (P08581 25-1390 limits assumed): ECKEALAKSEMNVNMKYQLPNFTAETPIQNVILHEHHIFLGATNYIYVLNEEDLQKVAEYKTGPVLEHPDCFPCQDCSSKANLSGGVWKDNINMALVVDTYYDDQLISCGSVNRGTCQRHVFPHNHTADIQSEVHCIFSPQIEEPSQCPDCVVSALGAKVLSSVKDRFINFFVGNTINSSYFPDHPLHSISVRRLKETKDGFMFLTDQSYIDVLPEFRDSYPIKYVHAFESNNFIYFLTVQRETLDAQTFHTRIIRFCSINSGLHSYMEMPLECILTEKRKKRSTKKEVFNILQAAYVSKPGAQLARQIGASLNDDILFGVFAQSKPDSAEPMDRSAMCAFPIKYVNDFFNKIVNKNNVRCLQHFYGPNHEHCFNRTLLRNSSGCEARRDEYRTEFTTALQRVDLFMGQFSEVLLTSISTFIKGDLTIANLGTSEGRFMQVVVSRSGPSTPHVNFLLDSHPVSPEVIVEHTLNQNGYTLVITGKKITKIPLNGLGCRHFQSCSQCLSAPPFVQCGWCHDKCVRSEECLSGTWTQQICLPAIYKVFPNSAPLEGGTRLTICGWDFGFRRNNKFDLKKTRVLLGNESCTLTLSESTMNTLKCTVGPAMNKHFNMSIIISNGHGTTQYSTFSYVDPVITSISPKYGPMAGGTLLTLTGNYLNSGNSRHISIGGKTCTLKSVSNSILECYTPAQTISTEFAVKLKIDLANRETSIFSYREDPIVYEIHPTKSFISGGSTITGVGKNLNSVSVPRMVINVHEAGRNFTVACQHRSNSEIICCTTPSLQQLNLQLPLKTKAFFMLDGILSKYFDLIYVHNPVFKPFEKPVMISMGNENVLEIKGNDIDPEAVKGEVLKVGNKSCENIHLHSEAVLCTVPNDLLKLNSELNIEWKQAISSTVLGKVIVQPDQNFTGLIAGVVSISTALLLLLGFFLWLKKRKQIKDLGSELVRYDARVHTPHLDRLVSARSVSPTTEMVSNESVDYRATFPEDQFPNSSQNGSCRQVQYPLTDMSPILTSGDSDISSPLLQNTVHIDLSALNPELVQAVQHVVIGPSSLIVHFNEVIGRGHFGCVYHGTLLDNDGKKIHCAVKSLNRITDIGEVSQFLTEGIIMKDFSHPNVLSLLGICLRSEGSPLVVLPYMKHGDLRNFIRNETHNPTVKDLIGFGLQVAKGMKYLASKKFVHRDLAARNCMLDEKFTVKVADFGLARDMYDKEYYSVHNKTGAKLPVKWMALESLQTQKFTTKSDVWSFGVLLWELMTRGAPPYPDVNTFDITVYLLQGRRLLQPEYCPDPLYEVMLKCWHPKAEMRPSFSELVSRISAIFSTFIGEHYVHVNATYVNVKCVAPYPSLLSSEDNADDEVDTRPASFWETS
Method: EBC-1 was cultured with DMEM medium (Gibco, Cat #C11995500BT) containing 10% FBS. […] Each antibody was incubated with different cell lines (1×10⁵ cells/well) for 30 min in 0.2 mL FACS buffer (1×PBS with 0.1% BSA) at 4° C. After wash, cells were incubated with 100 μL PE-conjugated anti human Fc (Abcam, Ab98596, 1:500 dilution) for 30 min at 4° C. After wash with PBS, cells were resuspended in FACS buffer and analyzed by flow cytometer (Beckman, CytoFLEX).

B1: AZD9592 (bispecific antibody, human IgG1, kappa, lambda)
anti-EGFR heavy chain: QVQLVQSGAEVKKPGSSVKVSCKASGGTFSDNDFSWVRQAPGQGLEWMGAIVAVFRTETYAQKFQDRVKITADISTRTTYMELSSLRSEDTAVYYCARRLMSAISGPGAPLLMWGQGTLVTVSSASTKGPSVCPLAPSSKSTSGGTAALGCLVKDYFPEPVTVSWNSGALTSGVHTFPAVLQSSGLYSLSSVVTVPSSSLGTQTYICNVNHKPSNTKVDKRVEPKSVDKTHTCPPCPAPEFEGGPSVFLFPPKPKDTLMISRTPEVTCVVVDVSHEDPEVKFNWYVDGVEVHNAKTKPREEQYNSTYRVVSVLTVLHQDWLNGKEYKCKVSNKALPASIEKTISKAKGQPREPQVYTLPPCREEMTKNQVSLWCLVKGFYPSDIAVEWESNGQPENNYKTTPPVLDSDGSFFLYSKLTVDKSRWQQGNVFSCSVMHEALHNHYTQKSLSLSPGK
anti-EGFR light chain: QSALTQPRSVSGSPGQSVTISCTGTSSDVGGYNYVSWYQQHPGKAPKLMIYDVSKRPSGVPDRFSGSKSGNTASLTISGLQAEDEADYYCSSYTSSDTLEIFGGGTKLTVLGQPKAAPSVTLFPPCSEELQANKATLVCLISDFYPGAVTVAWKADSSPVKAGVETTTPSKQSNNKYAASSYLSLTPEQWKSHRSYSCQVTHEGSTVEKTVAPTEVS
anti-cMET heavy chain: QVQLVQSGAEVKKPGASVKVSCKASGYTFTDYYIHWVRQATGQGLEWMGWMNPNSGNTGYAQKFQGRVTMTRDTSISTAYMELSSLRSEDTAVYYCARGQGYTHSWGQGTMVTVSSASTKGPSVFPLAPSSKSTSGGTAALGCLVKDYFPEPVTVSWNSGALTSGVHTFPAVLQSSGLYSLSSVVTVPSSSLGTQTYICNVNHKPSNTKVDKRVEPKSCDKTHTCPPCPAPEFEGGPSVFLFPPKPKDTLMISRTPEVTCVVVDVSHEDPEVKFNWYVDGVEVHNAKTKPREEQYNSTYRVVSVLTVLHQDWLNGKEYKCKVSNKALPASIEKTISKAKGQPREPQVCTLPPSREEMTKNQVSLSCAVKGFYPSDIAVEWESNGQPENNYKTTPPVLDSDGSFFLVSKLTVDKSRWQQGNVFSCSVMHEALHNHYTQKSLSLSPGK
anti-cMET light chain: DIQMTQSPSTLSASVGDRVTITCRASEGIYHWLAWYQQKPGKAPKLLIYKASSLASGVPSRFSGSGSGTEFTLTISSLQPDDFATYYCQQYSNYPPTFGGGTKLEIKRTVAAPSVFIFPPSDEQLKSGTASVVCLLNNFYPREAKVQWKVDNALQSGNSQESVTEQDSKDSTYSLSSTLTLSKADYEKHKVYACEVTHQGLSSPVTKSFNRGEC
Regarding B1, the EC50 (read off the curve) (commonly the midpoint of the concentration-response curve) is approximately 1 nM in [1]; approximately 0.07 nM in assay [2]; approximately 2 nM in assay [3]; approximately 2 nM in assay [4]; approximately 3 nM in assay [5]; approximately 3 nM in assay [6]. Besides, the concentration giving a half-maximal response (EC50 (read off the curve)) in assay [7] and in assay [8] was approximately 10 nM throughout.

B2: AZD9592-Ab (bispecific antibody, human IgG1, kappa, lambda)
anti-EGFR heavy chain: QVQLVQSGAEVKKPGSSVKVSCKASGGTFSDNDFSWVRQAPGQGLEWMGAIVAVFRTETYAQKFQDRVKITADISTRTTYMELSSLRSEDTAVYYCARRLMSAISGPGAPLLMWGQGTLVTVSSASTKGPSVCPLAPSSKSTSGGTAALGCLVKDYFPEPVTVSWNSGALTSGVHTFPAVLQSSGLYSLSSVVTVPSSSLGTQTYICNVNHKPSNTKVDKRVEPKSVDKTHTCPPCPAPEFEGGPSVFLFPPKPKDTLMISRTPEVTCVVVDVSHEDPEVKFNWYVDGVEVHNAKTKPREEQYNSTYRVVSVLTVLHQDWLNGKEYKCKVSNKALPASIEKTISKAKGQPREPQVYTLPPCREEMTKNQVSLWCLVKGFYPSDIAVEWESNGQPENNYKTTPPVLDSDGSFFLYSKLTVDKSRWQQGNVFSCSVMHEALHNHYTQKSLSLSPGK
anti-EGFR light chain: QSALTQPRSVSGSPGQSVTISCTGTSSDVGGYNYVSWYQQHPGKAPKLMIYDVSKRPSGVPDRFSGSKSGNTASLTISGLQAEDEADYYCSSYTSSDTLEIFGGGTKLTVLGQPKAAPSVTLFPPCSEELQANKATLVCLISDFYPGAVTVAWKADSSPVKAGVETTTPSKQSNNKYAASSYLSLTPEQWKSHRSYSCQVTHEGSTVEKTVAPTEVS
anti-cMET heavy chain: QVQLVQSGAEVKKPGASVKVSCKASGYTFTDYYIHWVRQATGQGLEWMGWMNPNSGNTGYAQKFQGRVTMTRDTSISTAYMELSSLRSEDTAVYYCARGQGYTHSWGQGTMVTVSSASTKGPSVFPLAPSSKSTSGGTAALGCLVKDYFPEPVTVSWNSGALTSGVHTFPAVLQSSGLYSLSSVVTVPSSSLGTQTYICNVNHKPSNTKVDKRVEPKSCDKTHTCPPCPAPEFEGGPSVFLFPPKPKDTLMISRTPEVTCVVVDVSHEDPEVKFNWYVDGVEVHNAKTKPREEQYNSTYRVVSVLTVLHQDWLNGKEYKCKVSNKALPASIEKTISKAKGQPREPQVCTLPPSREEMTKNQVSLSCAVKGFYPSDIAVEWESNGQPENNYKTTPPVLDSDGSFFLVSKLTVDKSRWQQGNVFSCSVMHEALHNHYTQKSLSLSPGK
anti-cMET light chain: DIQMTQSPSTLSASVGDRVTITCRASEGIYHWLAWYQQKPGKAPKLLIYKASSLASGVPSRFSGSGSGTEFTLTISSLQPDDFATYYCQQYSNYPPTFGGGTKLEIKRTVAAPSVFIFPPSDEQLKSGTASVVCLLNNFYPREAKVQWKVDNALQSGNSQESVTEQDSKDSTYSLSSTLTLSKADYEKHKVYACEVTHQGLSSPVTKSFNRGEC
notes: also called RAA22/B09-TM
With B2, the 50% effective concentration (EC50 (read off the curve)) in assay [3] is approximately 2 nM; in assay [4], approximately 2 nM; in assay [5], approximately 4 nM; in [6], approximately 4 nM; in [7], approximately 9 nM; in assay [8] it was approximately 9 nM.

B3: Bsab 12 (bispecific antibody, human IgG1, kappa, L234A L235A)
chain 1: not shown
chain 2: DIQMTQSPSSLSASVGDRVTITCKSSQSLLYTSSQKNYLAWYQQKPGKAPKLLIYWASTRESGVPSRFSGSGSGTDFTLTISSLQPEDFATYYCQQYYAYPWTFGQGTKVEIKRTVAAPSVFIFPPSDEQLKSGTASVVCLLNNFYPREAKVQWKVDNALQSGNSQESVTEQDSKDSTYSLSSTLTLSKADYEKHKVYACEVTHQGLSSPVTKSFNRGECGGGGSGGGGSGGGGSGGGGSGGGGSGGGGSGGGGSGGGGSEVQLVESGGGLVQPGGSLRLSCAASGYTFTSYWLHWVRQAPGKGLEWVGMIDPSNSDTRFNPNFKDRFTISADTSKNTAYLQMNSLRAEDTAVYYCATYRSYVTPLDYWGQGTLVTVSSASTKGPSVFPLAPSSKSTSGGTAALGCLVKDYFPEPVTVSWNSGALTSGVHTFPAVLQSSGLYSLSSVVTVPSSSLGTQTYICNVNHKPSNTKVDKKVEPKSCDKTHTCPPCPAPEAAGGPSVFLFPPKPKDTLMISRTPEVTCVVVDVSHEDPEVKFNWYVDGVEVHNAKTKPREEQYNSTYRVVSVLTVLHQDWLNGKEYKCKVSNKALPAPIEKTISKAKGQPREPQVYTLPPCREEMTKNQVSLSCAVKGFYPSDIAVEWESNGQPENNYKTTPPVLDSDGSFFLVSKLTVDKSRWQQGNVFSCSVMHEALHNHYTQKSLSLSPGK
notes: 1+1 scFab knob-in-hole format; also called Basb 12
For the molecule B3, the concentration giving a half-maximal response (EC50 (read off the curve)) in [9] is approximately 2 nM.

Source of the values: patent publication US20250381289A1 (Genmab, published 2025).
